Consider 1 molecule from PMC8528823 (2021).

The target in the experiment is SARS-CoV-2 WT RBD (SARS-CoV-2, UniProt P0DTC2 319-541). Put plainly: SPR. On the technique in general: Surface plasmon resonance follows binding to a sensor surface in real time, without labels.

B1: Mouse Fc (mFc) tagged mink ACE2 (Fc fusion)
chain: QSTTEDLAKTFLEKFNYEAEELSYQNSLASWNYNTNITDENIQKMNIAGAKWSAFYEEESQHAKTYPLEEIQDPIIKRQLRALQQSGSSVLSADKRERLNTILNAMSTIYSTGKACNPNNPQECLLLEPGLDDIMENSKDYNERLWAWEGWRSEVGKQLRPLYEEYVALKNEMARANNYEDYGDYWRGDYEEEWADGYNYSRNQLIEDVEHTFTQIKPLYEHLHAYVRAKLMDAYPSRISPTGCLPAHLLGDMWGRFWTNLYPLMVPFGQKPNIDVTDAMVNQSWDARRIFKEAEKFFVSVGLPNMTEGFWQNSMLTEPGDNRKVVCHPTAWDLGKHDFRIKMCTKVTMDDFLTAHHEMGHIQYDMAYAAQPFLLRNGANEGFHEAVGEIMSLSAATPNHLKNIGLLPPDFSEDSETDINFLLKQALTIVGTLPFTYMLEKWRWMVFKGEIPKEQWMQKWWEMKRDIVGVVEPLPHDETYCDPAALFHVANDYSFIRYYTRTIYQFQFQEALCQIAKHEGPLYKCDISNSREAGQKLHEMLSLGRSKPWTFALERVVGAKTMDVRPLLNYFEPLFTWLKEQNRNSFVGWNTDWSPYADQSIKVRISLKSALGEKAYEWNDNEMYFFQSSIAYAMREYFSKVKKQTIPFVDKDVRVSDLKPRISFNFIVTSPENMSDIIPRADVEEAIRKSRGRINDAFRLDDNSLEFLGIQPTLEPPYQPPVT
In turn, B1 returned a koff of 1.65 s⁻¹.

As usually defined, the koff is a measure of how fast the partners let go of each other. Higher therefore signals fast dissociation.
